This is an account of results in patent US20200239579A1 (Genmab, published 2020).

Test [1] has as its target T1, cynomolgus PD-L1/137-H1 protein (Acro Biosystems, cat. No. PD1-052H4-100) (cynomolgus, UniProt G7PSE7 19-239).
T1 construct: also called cynomolgus PD-L1 (BLI)
Nature of the test: BLI (Octet HTX), average of 3 experiments. The method, then:
(§1) In a first set of experiments, affinities for recombinant-expressed human PD-L1 protein were determined using Bio-layer interferometry (BLI) on an Octet HTX instrument (ForteBio). Anti-Human IgG Fc Capture (AHC) biosensors (ForteBio) were loaded for 900 s with antibodies (1 μg/ml). […] The experiment was carried out while shaking at 1000 rpm at 30° C. Data was analyzed with Data Analysis Software v9.0.0.12 (ForteBio) using the 1:1 model and a global full fit with 1000 s association time and 200 or 1000 s dissociation time. Data traces were corrected by subtraction of a buffer reference, the Y-axis was aligned to the last 10 s of the baseline, and interstep correction as well as Savitzky-Golay filtering was applied. Data traces with a response <0.05 nm were excluded from analysis. As default, the fit using 1000 s dissociation time was used.
The experimental set-up was as described above, with the exception of [0466] Loading time of AHC biosensors with antibodies was 600 s; [0467] Baseline was 300 s; [0468]
For orientation: In BLI a coated tip is dipped into the sample, and binding shifts an interference pattern.

Test [2] concerns the target T2, human PD-L2 (full length, on CHO cells) (human, UniProt Q9BQ51 20-273).
T2 construct: whole, on cells; also called CHO-PD-L2 cells
T2 sequence (looked up): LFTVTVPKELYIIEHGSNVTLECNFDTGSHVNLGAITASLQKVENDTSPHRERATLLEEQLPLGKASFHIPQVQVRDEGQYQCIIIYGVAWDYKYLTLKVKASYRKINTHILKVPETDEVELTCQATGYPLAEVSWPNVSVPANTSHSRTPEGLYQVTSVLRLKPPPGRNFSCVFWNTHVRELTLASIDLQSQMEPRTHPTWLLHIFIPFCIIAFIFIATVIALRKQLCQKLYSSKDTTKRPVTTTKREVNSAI
Nature of the test: flow cytometry on CHO cells expressing human PD-L2. The method, then:
(§2) Cells (3-5×10⁴ cells/well) were incubated in polystyrene 96-well round-bottom plates (Greiner bio-one, cat. no. 650101) with serial dilutions of antibodies (range 0.0001 to 10 μg/mL in 5-fold dilution steps) in 50 μL PBS/0.1% BSA/0.02% azide (staining buffer) at 4° C. for 30 min.
(§3) After washing twice in staining buffer, cells were incubated in 50 μL secondary antibody at 4° C. for 30 min. As a secondary antibody, R-Phycoerythrin (PE)-conjugated goat-anti-human IgG F(ab′)₂ (Cat. no. 109-116-098, Jackson ImmunoResearch Laboratories, Inc., West Grove, Pa.) diluted 1:500 in staining buffer, was used for all experiments. Next, cells were washed twice in staining buffer, re-suspended in 20 μL staining buffer and analyzed on an iQue screener (Intellicyt Corporation, USA). Binding curves were analyzed using non-linear regression (sigmoidal dose-response with variable slope) using GraphPad Prism V75.04 software (GraphPad Software, San Diego, Calif., USA).
A PE-conjugated PD-L2 specific antibody (Mylteni, clone MIH18; cat. no. 130-098-651) was used as positive control.

Test [3] concerns the target T3, human PD-L1 (full length, on cells) (human, UniProt Q9NZQ7 19-290).
T3 construct: The entry holds the signal peptide; also called CD274; B7H1
Nature of the test: flow cytometry on PC3 cells, PE anti-human IgG secondary, MFI (PE). As for the experimental part: as §2, §3

In test [4] the target is T3, human PD-L1 (full length, on cells). Nature of the test: flow cytometry on SK-MES-1 cells, PE anti-human IgG secondary, MFI (PE). The method, then: as §2, §3
For orientation: A flow cytometer gives signals particle by particle.

Test [5] has the same target. Nature of the test: flow cytometry on MDA-MB-231 cells, PE anti-human IgG secondary, MFI (PE). As for the experimental part:
as §2, §3

Test [6] addresses T4, PDLoneECDHisCtag (human, UniProt Q9NZQ7 19-238).
T4 construct: Expressed in HEK-293F cells; theoretical molecular weight 29 kDa; also called recombinant human PD-L1 ECD; human PD-L1 (BLI); not shown: C-terminal His-tag; C-tag
Nature of the test: BLI (Octet HTX), average of 3 experiments; antibody on AHC sensor, PDLoneECD-HisCtag as analyte. As for the experimental part: as §1

The target in test [7] is T4, PDLoneECDHisCtag. Nature of the test: BLI cross-block, second antibody on PDLoneECDHisCtag held by immobilised 321; bold = blocking. The method, then: (§4) Antibody cross-block testing was performed using biolayer interferometry (BLI) on an Octet HTX instrument (ForteBio). Antibodies (20 μg/ml in 10 mM sodium acetate buffer pH 6.0 (ForteBio)) were immobilized on Amine-Reactive 2nd Generation (AR2G) biosensors (ForteBio) according to the instructions of the manufacturer. After a baseline (50 s) in Sample Diluent (ForteBio), biosensors containing immobilized antibodies were loaded for 500 s with PDLoneECDHisCtag (100 nM or 2.7 μg/ml), after which the association response of a second antibody (10 μg/ml) was followed for 500 s. Biosensors were regenerated by using 3 times 5 s alternating exposures to 10 mM glycine pH 2.5 and Sample Diluent. The experiment was repeated with a new set of second antibodies starting from the baseline step. Each biosensor was used 6 times. The experiment was performed at 30° C. using a shaker speed of 1000 rpm. Data was analyzed using Data Analysis Software v9.0.0.12 (ForteBio). The Y-axis was aligned to the association step and Savitzky-Golay filtering was applied. The average buffer response was subtracted from the association response of the second antibody in order to correct for the dissociation of PDLoneECDHisCtag from the immobilized antibody. The corrected association responses were plotted in a matrix format.

Test [8] concerns the target T5, cynomolgus monkey PD-L1 (full length, on CHO cells) (cynomolgus monkey (Macaca fascicularis), UniProt G7PSE7 19-290).
T5 construct: whole, on cells; also called PDL1 Mf; cynomolgus PD-L1
Nature of the test: flow cytometry on CHO cells transfected with cynomolgus PD-L1, PE anti-human IgG secondary, MFI (PE). As for the experimental part:
as §2, §3
Binding to CHO cells expressing cynomolgus PD-L1 was determined by flow cytometry using a method as described above.

Test [9] has as its target T4, PDLoneECDHisCtag. Nature of the test: BLI cross-block, second antibody on PDLoneECDHisCtag held by immobilised MEDI; bold = blocking. The method, then: as §4
For test [10], the target named is T4, PDLoneECDHisCtag. Nature of the test: BLI cross-block, second antibody on PDLoneECDHisCtag held by immobilised 516; plain = non-blocking. The method, then:
as §4

T4 sequence (Q9NZQ7 19-238, form in doubt): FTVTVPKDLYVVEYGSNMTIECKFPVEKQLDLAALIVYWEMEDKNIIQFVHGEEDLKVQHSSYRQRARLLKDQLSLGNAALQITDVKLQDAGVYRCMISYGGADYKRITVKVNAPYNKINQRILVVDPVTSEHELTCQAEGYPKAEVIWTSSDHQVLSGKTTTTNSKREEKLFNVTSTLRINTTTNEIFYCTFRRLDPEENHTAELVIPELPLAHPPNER
T1 sequence (G7PSE7 entry or part of it): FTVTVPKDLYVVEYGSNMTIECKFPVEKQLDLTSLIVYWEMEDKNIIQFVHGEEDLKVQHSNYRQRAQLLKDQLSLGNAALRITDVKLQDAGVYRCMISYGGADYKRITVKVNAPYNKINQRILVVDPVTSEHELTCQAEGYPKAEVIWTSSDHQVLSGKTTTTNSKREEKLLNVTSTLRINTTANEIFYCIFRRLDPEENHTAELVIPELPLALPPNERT
T5 sequence (G7PSE7 entry or part of it): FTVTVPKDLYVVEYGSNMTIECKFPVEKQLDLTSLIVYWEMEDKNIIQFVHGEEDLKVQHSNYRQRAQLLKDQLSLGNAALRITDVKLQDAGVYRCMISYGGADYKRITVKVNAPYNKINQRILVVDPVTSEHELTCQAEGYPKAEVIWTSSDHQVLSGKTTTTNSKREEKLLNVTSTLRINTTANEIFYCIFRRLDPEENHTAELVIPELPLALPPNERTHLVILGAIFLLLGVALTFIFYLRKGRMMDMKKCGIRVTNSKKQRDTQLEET
T3 sequence (Q9NZQ7 19-290 limits assumed): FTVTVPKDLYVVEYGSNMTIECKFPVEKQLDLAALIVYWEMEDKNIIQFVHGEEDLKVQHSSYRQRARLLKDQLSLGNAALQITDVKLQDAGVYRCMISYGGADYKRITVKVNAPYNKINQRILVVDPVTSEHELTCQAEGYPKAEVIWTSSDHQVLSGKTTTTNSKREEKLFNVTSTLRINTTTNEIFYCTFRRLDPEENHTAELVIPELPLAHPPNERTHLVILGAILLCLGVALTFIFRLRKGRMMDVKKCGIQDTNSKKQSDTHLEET

B1: IgG1-511-LC33S-FEAR (antibody, V domains shown)
VH: QVQLVQSGSELKKPGASVMVSCKASGYTFTSYVMNWVRQAPGQGLEWMGWINSYTGNPTSAQGFTGRFVFSFDTSVNTAYLQISSLKAEDTAVYYCARGYCTSTSCYLDYWGQGTLVTVSS
VL: SYELTQPPSVSVSPGHTARITCSGDALPKKYASWFQQKSGQAPVLVIYEDSKRPSGIPERFSGSTSGTMATLTISGAQVEDETDYYCYSADTSGTHRVFGGGTKLTVLG
As to B1, the “Fold difference of KD (cynomolgus against human PD-L1)” value (“Fold difference of KD” for short) in test [1] stood at 2.3 fold. Besides, the binding result in test [2] is given as “no binding”. In addition, the “EC50 (read off the curve)” value in [3] is roughly 0.01 µg/mL; in [4], roughly 0.2 µg/mL; in test [5], roughly 0.04 µg/mL; in test [8], roughly 0.02 µg/mL. The molecule also yielded a Kd with PDLoneECDHisCtag [6] of 5.1 nM. The koff with PDLoneECDHisCtag [6] came out at 0.0048 s⁻¹. Also, in the test with PDLoneECDHisCtag [6], the kon is 960000 M⁻¹ s⁻¹. Further, the “association response of the second antibody” value (“association response” below) with PDLoneECDHisCtag [7] turned out to be 0 nm; with PDLoneECDHisCtag [9] it was 0 nm; with PDLoneECDHisCtag [10], 1.1 nm.

B2: IgG1-338-FEAR (antibody, V domains shown)
VH: EVQVVESGGGLVQPGGSLRLSCAASGFTFSRFWMSWVRQAPGKGLEWVANIKQDGGEKYYVDSVKGRFTISRDNAKNSLYLQMNSLRGEDTAVYYCARDDNWNGHFDYWGQGTLVTVSS
VL: DIQMTQSPSTLSASVGDRVTITCRASQSISSWLAWYQQKPGKAPNLLIYKASSLESGVPSRFSGSGSGTEFTLTISSLQPDDFATYYCQQYYGSYITFGQGTRLEIKR
As for B2, in [1], the “Fold difference of KD” value stood at 2.3 fold. Moreover, the binding result in [2] is on record as “no binding”. Also, the “EC50 (read off the curve)” value was roughly 0.03 µg/mL in test [3], roughly 0.1 µg/mL in [4], roughly 0.06 µg/mL in [5] and roughly 0.01 µg/mL in [8]. In addition, the dissociation constant (Kd) with PDLoneECDHisCtag [6] was 0.31 nM. This molecule gave a koff with PDLoneECDHisCtag [6] of 0.00025 s⁻¹. This molecule also displayed a kon with PDLoneECDHisCtag [6] of 800000 M⁻¹ s⁻¹. Also, the “association response” value was found to be 0 nm in the test with PDLoneECDHisCtag [7], 0 nm with PDLoneECDHisCtag [9] and 1.1 nm in the test with PDLoneECDHisCtag [10].

B3: IgG1-547-FEAR (antibody, V domains shown)
VH: EVQLLEPGGGLVQPGGSLRLSCEASGSTFSTYAMSWVRQAPGKGLEWVSGFSGSGGFTFYADSVRGRFTISRDSSKNTLFLQMSSLRAEDTAVYYCAIPARGYNYGSFQHWGQGTLVTVSS
VL: SYVLTQPPSVSVAPGQTARITCGGNNIGSKSVHWYQQKPGQAPVLVVYDDNDRPSGLPERFSGSNSGNTATLTISRVEAGDEADYYCQVWDSSSDHVVFGGGTKLTVLG
Take B3: in test [1], the “Fold difference of KD” value turned out to be 2.3 fold. Further, the binding result in [2] is “no binding”. Besides, the half-maximal effective concentration (EC50 (read off the curve)) was roughly 0.04 µg/mL in [3], roughly 0.2 µg/mL in test [4], roughly 0.06 µg/mL in [5] and roughly 0.02 µg/mL in test [8]. Besides, in the test with PDLoneECDHisCtag [6], binding was characterised by a dissociation constant (Kd) of 0.12 nM. The koff in the test with PDLoneECDHisCtag [6] was found to be 0.00011 s⁻¹. In the test with PDLoneECDHisCtag [6], this molecule displayed an association rate constant (kon) of 970000 M⁻¹ s⁻¹. For the same molecule, the “association response” value came to 0 nm in the test with PDLoneECDHisCtag [7], 0 nm with PDLoneECDHisCtag [9] and 0.8 nm with PDLoneECDHisCtag [10].

In general, EC50 (read off the curve) refers to the concentration at which the effect is half-maximal. In general, Kd refers to the constant that tells how readily two partners part at equilibrium. For orientation: koff means a measure of how fast the partners let go of each other. One may read the kon as a measure of how fast the partners come together.
